Results as given in publication PMC3962391, “Cation Diffusion Facilitators Transport Initiation and Regulation Is Mediated by Cation Induced Conformational Changes of the Cytoplasmic Domain” (PLoS ONE, 2014).
Substitutions are numbered along the chain they refer to. Names and notes keep the numbering of the source.

B1: C-terminal truncation MamM-CTD mutant (residues 215-293) (domain or fragment, Magnetospirillum gryphiswaldense MSR-1, UniProt V6F235 215-293, looked up)
chain: EAVQNRIVEAAERVPGVRGVIHLRARYVGQDIWADMIIGVDPENTVEQAHEICEAVQAAVCGKIRRIESLHVSAEAREI
notes: MamM, Magnetospirillum gryphiswaldense MSR-1; source: purified
B2: MamM-CTD (residues 215-318) (domain or fragment, Magnetospirillum gryphiswaldense MSR-1, UniProt V6F235 215-318, looked up)
chain: EAVQNRIVEAAERVPGVRGVIHLRARYVGQDIWADMIIGVDPENTVEQAHEICEAVQAAVCGKIRRIESLHVSAEAREIGDTTKPSFSDQPLSFDEVMLSKVDN
notes: MamM, cation diffusion facilitator of the magnetosome membrane, Magnetospirillum gryphiswaldense MSR-1; Uniformly 13C,15N labelled for the solid-state NMR; also called apo-MamM-CTD; source: purified
B3: MamM-CTD V260P (domain or fragment, Magnetospirillum gryphiswaldense MSR-1, UniProt V6F235 215-318, looked up)
chain: B2 chain with V46P
notes: MamM, Magnetospirillum gryphiswaldense MSR-1; also called V260P MamM-CTD mutant; recombinant MamM-CTD V260P; source: recombinant

Molecular target: the molecule itself
Assay: SEC; Superdex200; apo proteins; elution volume against a calibration curve of marker proteins

Protein | stoichiometry N
B1 | 2
B2 | 2
B3 | 2
